These results are taken from paper PMC5462532.

Experiment [1] has as its target UbcH7 (C17S, C86K, C137S)∼Ub conjugate (for ITC) (human) (UniProt P68036). As to the kind of experiment: ITC; 250-300 μM RING1 constructs in the syringe, 25-30 μM E2 or E2∼Ub in the cell; 293 K; 25 mM Hepes pH 7.5, 150 mM NaCl, 0.5 mM TCEP; 1:1 fit; repeated twice, averages. On the technique in general: In ITC the heat of successive injections is recorded.
Experiment [2] addresses UbcH7 (wild type, for ITC) (human) (UniProt P68036). The description is as above.
Experiment [3] has as its target HHARI of the HHARI/UbcH7 complex analysed by SEC-MALS (human) (UniProt Q9Y4X5). As to the kind of experiment: SEC-MALS; HHARI/UbcH7 complex at 1.5 mg/ml in 25 mM MOPS, 150 mM NaCl, pH 7.5; Superose 6 Increase 3.2/300; room temperature. (Size exclusion chromatography separates by hydrodynamic size, large species first.)

By Kd is commonly meant the equilibrium constant for the complex coming apart. By stoichiometry N is commonly meant a count of units in the complex or per binding partner. Turning to “HHARI RING1 (aa 177-270), wild type (from UniProt Q9Y4X5 177-270) (domain or fragment)”, in experiment [1], the Kd is 116 nM, the dH was 3.7 kcal/mol and the stoichiometry N was found to be 1. In experiment [2], this substance gave a Kd of 294 nM, a dH of 4.3 kcal/mol and a stoichiometry N of 1.
“UbcH7 of the HHARI/UbcH7 complex analysed by SEC-MALS (from UniProt P68036 1-154) (enzyme)” displayed a stoichiometry N in experiment [3] of 1.
